According to patent US20110065649A1:

Assays:
[1] = target: surface nucleolin on human cells (human), P19338; test: cell-based or functional assay
[2] = target: surface nucleolin on mouse cells (mouse), P09405; test: cell-based or functional assay
Chain of surface nucleolin on mouse cells (mouse), P09405 (P09405 2-707): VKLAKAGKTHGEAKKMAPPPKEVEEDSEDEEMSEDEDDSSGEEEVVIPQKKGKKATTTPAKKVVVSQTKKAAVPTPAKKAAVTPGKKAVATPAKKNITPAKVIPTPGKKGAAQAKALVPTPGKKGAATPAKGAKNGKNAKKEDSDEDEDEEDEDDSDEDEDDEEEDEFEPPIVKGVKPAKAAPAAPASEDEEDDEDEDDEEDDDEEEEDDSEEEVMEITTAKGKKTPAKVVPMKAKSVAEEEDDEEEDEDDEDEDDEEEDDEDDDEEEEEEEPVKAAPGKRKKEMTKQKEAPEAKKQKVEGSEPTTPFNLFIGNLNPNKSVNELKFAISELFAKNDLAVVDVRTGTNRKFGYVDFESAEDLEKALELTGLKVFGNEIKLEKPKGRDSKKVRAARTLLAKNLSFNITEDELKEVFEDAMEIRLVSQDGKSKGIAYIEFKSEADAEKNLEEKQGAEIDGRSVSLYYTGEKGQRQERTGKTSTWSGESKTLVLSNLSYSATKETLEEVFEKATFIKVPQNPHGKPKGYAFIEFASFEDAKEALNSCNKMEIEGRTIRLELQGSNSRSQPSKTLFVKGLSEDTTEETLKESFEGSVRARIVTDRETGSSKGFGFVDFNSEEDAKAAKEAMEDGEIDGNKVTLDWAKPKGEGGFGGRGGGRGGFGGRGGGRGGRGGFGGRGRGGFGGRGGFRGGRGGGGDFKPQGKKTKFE

Chain of surface nucleolin on human cells (human), P19338 (P19338 2-710): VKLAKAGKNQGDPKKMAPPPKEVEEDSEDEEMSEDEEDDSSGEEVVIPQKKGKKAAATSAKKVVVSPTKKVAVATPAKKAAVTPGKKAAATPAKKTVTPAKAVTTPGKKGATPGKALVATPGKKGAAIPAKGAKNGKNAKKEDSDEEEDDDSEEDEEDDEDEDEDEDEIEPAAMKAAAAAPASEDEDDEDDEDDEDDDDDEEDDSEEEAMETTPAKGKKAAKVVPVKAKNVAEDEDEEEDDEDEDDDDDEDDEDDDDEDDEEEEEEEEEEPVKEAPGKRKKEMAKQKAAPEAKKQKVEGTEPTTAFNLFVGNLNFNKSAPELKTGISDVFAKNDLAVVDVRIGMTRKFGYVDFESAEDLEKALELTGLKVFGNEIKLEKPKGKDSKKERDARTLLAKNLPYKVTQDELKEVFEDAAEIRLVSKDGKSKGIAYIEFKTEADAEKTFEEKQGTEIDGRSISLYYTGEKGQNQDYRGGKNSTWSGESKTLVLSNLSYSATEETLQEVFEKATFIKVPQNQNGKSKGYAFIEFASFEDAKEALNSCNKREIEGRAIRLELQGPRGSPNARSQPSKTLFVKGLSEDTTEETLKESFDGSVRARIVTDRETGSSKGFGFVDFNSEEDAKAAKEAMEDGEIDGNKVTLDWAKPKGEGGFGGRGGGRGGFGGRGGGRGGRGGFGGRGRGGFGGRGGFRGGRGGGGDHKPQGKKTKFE

B1: hexavalent compound Nucant 7 (peptide)
chain: KAKPGKAKPGKAKPG
peptide: KPR
modifications: not checked
ID50 (Inhibitory Dose at 50%) of surface nucleolin activity in HeLa P4 cells [1]: < 100 nM
inhibition of surface nucleolin activity in HeLa P4 cells at 0.8 µM [1]: > 95%
inhibition of TNF-alpha and IL-6 production by murine peritoneal macrophages stimulated by 10, 100 and 1000 ng/ml of LPS, at 10 µM of Nucant 7 [2]: > 95%
